Assay results as given in patent US20130330334A1 (FRAUNHOFER GESELLSCHAFT ZUR F RDERUNG DER ANGEWANDTEN …, published 2013).

Key:
[1] = target: T1, human CD4 (coated on ELISA plate) (human, UniProt P01730 26-396, limits assumed); experiment: competition ELISA, plate-coated CD4, competitor biotinylated mouse anti-CD4 at 0.2 µg/ml
Method: The chimeric antibody was tested in an ELISA-based competition assay using mouse anti-CD4 antibody, biotinylated using a B-Tag micro biotinylation kit (Sigma, Poole UK). A dilution series of chimeric IgG4 or control mouse antibody from 10 μg/ml to 0.009 μg/ml was premixed with a constant concentration of biotinylated anti-CD4 (0.2 μg/ml) before incubating 100 μl/well for 1 hour at room temperature in a Nunc MaxiSorp 96 well flat bottom microtitre plate (Fisher, Loughborough, UK) pre-coated with 50 μl/well of 1 μg/ml CD4. The binding of the biotinylated mAb was determined by incubating for 1 h at room temperature with 100 μl/well of a 1/500 dilution of streptavidin-HRP (Sigma), followed by detection with 100 μl/well OPD substrate (Sigma). After stopping the reaction with 50 μl/well 3M HCl, absorbance at 490 nm was measured using a Dynex Technologies (Worthing, UK) MRX TC II plate reader.
Therefore the correct variable region sequences have been identified and cloned.

[2] = target: T1, human CD4 (coated on ELISA plate); experiment: competition ELISA, plate-coated human CD4, competitor biotinylated mouse antibody at 0.2 µg/ml

Row | Binder | IC50 [1] | Relative Binding (IC50 of test sample divided by IC50 of mouse antibody) [2]
1 | chimeric anti human CD4-antibody (chimeric IgG4) (antibody, V domains shown, Mouse VH and VL were cloned into pANTVhG4 (human genomic IgG4 constant region) and pANTVk (human kappa constant region) and expressed in NS0 cells; also called chimeric anti-CD4 antibody; chimeric antibody) VH: EVQLQQSGTVLARPGASVQMSCKASGYSFANYWMHWVKQRPGQGLQWIGALYPGNVDTTYNQKFKDKAKLTAVTSASTAYMELSSLTNEDSAVYYCTRMGTTLEAPLDYWGQGTTLTVSS VL: QIVLTQSPAIMSASPGEKVAMTCSARSSVSYLYWYQQKPGSSPRLLIYDTSNLASGVPVRFIGSGSGTSYSLTISRMEAEDAATYYCQQWSDYPLTFGAGTKLELK | 0.25 µg/mL | –
2 | modified anti-CD4 antibody VH3/VK4 (antibody, V domains shown) VH: EVQLQQSGSELKRPGASVKMSCKASGYTFANYWMHWVKQAPGQGLQWIGALYPGNVDTTYNQKFKDKAKLTAVTSASTAYMELSSLTNEDTAVYYCTRMGTTLEAPLDYWGQGTLVTVSS VL: QIVLTQSPAILSASPGEKAAMTCSARSSVSYLYWYQQKPGSSPRLLIYDTSNLASGVPSRFIGSGSGTDYSLTISSMEAEDAATYYCQQWSDYPLTFGAGTKLEIK | – | 1.44 fold
3 | monoclonal mouse anti human CD4-antibody 30F16H5 (antibody, mouse IgG1, V domains shown, also called Max16H5; Max.16H5) VH: EVQLQQSGTVLARPGASVQMSCKASGYSFANYWMHWVKQRPGQGLQWIGALYPGNVDTTYNQKFKDKAKLTAVTSASTAYMELSSLTNEDSAVYYCTRMGTTLEAPLDYWGQGTTLTVSS VL: QIVLTQSPAIMSASPGEKVAMTCSARSSVSYLYWYQQKPGSSPRLLIYDTSNLASGVPVRFIGSGSGTSYSLTISRMEAEDAATYYCQQWSDYPLTFGAGTKLELK | 0.18 µg/mL | –
4 | modified anti-CD4 antibody VH1/VK4 (antibody, V domains shown) VH: EVQLQQSGSELKRPGASVKVSCKASGYTFANYWMHWVRQAPGQGLQWIGALYPGNVDTTYNQKFKDKAKITRDTSASTAYMELSSLTNEDTAVYYCTRMGTTLEAPLDYWGQGTLVTVSS VL: QIVLTQSPAILSASPGEKAAMTCSARSSVSYLYWYQQKPGSSPRLLIYDTSNLASGVPSRFIGSGSGTDYSLTISSMEAEDAATYYCQQWSDYPLTFGAGTKLEIK | – | 5.06 fold
5 | modified anti-CD4 antibody VH2/VK1 (antibody, V domains shown) VH: EVQLQQSGSELKRPGASVKVSCKASGYTFANYWMHWVKQAPGQGLQWIGALYPGNVDTTYNQKFKDKAKLTADTSASTAYMELSSLTNEDTAVYYCTRMGTTLEAPLDYWGQGTLVTVSS VL: QIVLTQSPATLSASPGEKAAMTCSARSSVSYLYWYQQKPGSSPRALIYDTSNLASGVPSRFSGSGSGTDYSLTISSMEAEDAATYYCQQWSDYPLTFGAGTKLEIK | – | 8.66 fold
6 | modified anti-CD4 antibody VH4/VK2 (antibody, V domains shown) VH: EVQLQQSGTELKRPGASVKMSCKASGYTFANYWMHWVKQAPGQGLQWIGALYPGNVDTTYNQKFKDKAKLTAVTSASTAYMELSSLTNEDSAVYYCTRMGTTLEAPLDYWGQGTTVTVSS VL: QIVLTQSPATLSASPGEKAAMTCSARSSVSYLYWYQQKPGSSPRLLIYDTSNLASGVPSRFSGSGSGTDYSLTISSMEAEDAATYYCQQWSDYPLTFGAGTKLEIK | – | 0.73 fold
7 | modified anti-CD4 antibody VH1/VK1 (antibody, V domains shown, VK1=20, VK2=18, VK3=16, VK4=14) VH: EVQLQQSGSELKRPGASVKVSCKASGYTFANYWMHWVRQAPGQGLQWIGALYPGNVDTTYNQKFKDKAKITRDTSASTAYMELSSLTNEDTAVYYCTRMGTTLEAPLDYWGQGTLVTVSS VL: QIVLTQSPATLSASPGEKAAMTCSARSSVSYLYWYQQKPGSSPRALIYDTSNLASGVPSRFSGSGSGTDYSLTISSMEAEDAATYYCQQWSDYPLTFGAGTKLEIK | – | 0.14 fold
8 | modified anti-CD4 antibody VH3/VK2 (antibody, V domains shown) VH: EVQLQQSGSELKRPGASVKMSCKASGYTFANYWMHWVKQAPGQGLQWIGALYPGNVDTTYNQKFKDKAKLTAVTSASTAYMELSSLTNEDTAVYYCTRMGTTLEAPLDYWGQGTLVTVSS VL: QIVLTQSPATLSASPGEKAAMTCSARSSVSYLYWYQQKPGSSPRLLIYDTSNLASGVPSRFSGSGSGTDYSLTISSMEAEDAATYYCQQWSDYPLTFGAGTKLEIK | – | 1.77 fold
9 | modified anti-CD4 antibody VH2/VK4 (antibody, V domains shown) VH: EVQLQQSGSELKRPGASVKVSCKASGYTFANYWMHWVKQAPGQGLQWIGALYPGNVDTTYNQKFKDKAKLTADTSASTAYMELSSLTNEDTAVYYCTRMGTTLEAPLDYWGQGTLVTVSS VL: QIVLTQSPAILSASPGEKAAMTCSARSSVSYLYWYQQKPGSSPRLLIYDTSNLASGVPSRFIGSGSGTDYSLTISSMEAEDAATYYCQQWSDYPLTFGAGTKLEIK | – | 1.44 fold
10 | modified anti-CD4 antibody VH2/VK2 (antibody, V domains shown) VH: EVQLQQSGSELKRPGASVKVSCKASGYTFANYWMHWVKQAPGQGLQWIGALYPGNVDTTYNQKFKDKAKLTADTSASTAYMELSSLTNEDTAVYYCTRMGTTLEAPLDYWGQGTLVTVSS VL: QIVLTQSPATLSASPGEKAAMTCSARSSVSYLYWYQQKPGSSPRLLIYDTSNLASGVPSRFSGSGSGTDYSLTISSMEAEDAATYYCQQWSDYPLTFGAGTKLEIK | – | 0.96 fold
11 | modified anti-CD4 antibody VH4/VK4 (antibody, V domains shown) VH: EVQLQQSGTELKRPGASVKMSCKASGYTFANYWMHWVKQAPGQGLQWIGALYPGNVDTTYNQKFKDKAKLTAVTSASTAYMELSSLTNEDSAVYYCTRMGTTLEAPLDYWGQGTTVTVSS VL: QIVLTQSPAILSASPGEKAAMTCSARSSVSYLYWYQQKPGSSPRLLIYDTSNLASGVPSRFIGSGSGTDYSLTISSMEAEDAATYYCQQWSDYPLTFGAGTKLEIK | – | 0.49 fold
12 | modified anti-CD4 antibody VH4/VK1 (antibody, V domains shown) VH: EVQLQQSGTELKRPGASVKMSCKASGYTFANYWMHWVKQAPGQGLQWIGALYPGNVDTTYNQKFKDKAKLTAVTSASTAYMELSSLTNEDSAVYYCTRMGTTLEAPLDYWGQGTTVTVSS VL: QIVLTQSPATLSASPGEKAAMTCSARSSVSYLYWYQQKPGSSPRALIYDTSNLASGVPSRFSGSGSGTDYSLTISSMEAEDAATYYCQQWSDYPLTFGAGTKLEIK | – | 3.89 fold
